The target of one data set is T1, GST-ABF1 (Oryza sativa L. ssp. japonica cv …, UniProt Q0JHF1 1-266).
T1 sequence: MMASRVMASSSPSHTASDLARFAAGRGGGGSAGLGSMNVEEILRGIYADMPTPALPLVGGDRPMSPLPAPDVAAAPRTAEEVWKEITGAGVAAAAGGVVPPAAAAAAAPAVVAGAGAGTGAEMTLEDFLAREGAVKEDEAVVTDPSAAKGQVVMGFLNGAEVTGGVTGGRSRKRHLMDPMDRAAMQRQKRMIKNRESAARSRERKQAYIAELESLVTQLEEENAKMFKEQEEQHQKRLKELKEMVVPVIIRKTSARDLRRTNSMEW
Nature of the data set: EMSA; binding lost with unlabeled probe; EMSA/gel-shift binding buffer (composition, pH and temperature not stated); 20 fmol biotin-labeled probe; 6% acrylamide gel. The following applies: protein: recombinant; tags: N-terminal GST (pGEX-4T-1); chain copies: 2; label: biotin; blunt. Background: In EMSA bound probe runs differently from free probe, usually more slowly.

The target in another data set is T2, His-SAPK10 (rice (Oryza sativa L.), UniProt Q75H77 1-362).
T2 construct: SAPK10, SnRK2-type Ser/Thr protein kinase of rice; the CDS was fused into pET-28a; source: E. coli Transetta (DE3), purified (6x His-Tagged Protein Purification Kit); not shown: His, N-terminal, kept
T2 sequence (looked up): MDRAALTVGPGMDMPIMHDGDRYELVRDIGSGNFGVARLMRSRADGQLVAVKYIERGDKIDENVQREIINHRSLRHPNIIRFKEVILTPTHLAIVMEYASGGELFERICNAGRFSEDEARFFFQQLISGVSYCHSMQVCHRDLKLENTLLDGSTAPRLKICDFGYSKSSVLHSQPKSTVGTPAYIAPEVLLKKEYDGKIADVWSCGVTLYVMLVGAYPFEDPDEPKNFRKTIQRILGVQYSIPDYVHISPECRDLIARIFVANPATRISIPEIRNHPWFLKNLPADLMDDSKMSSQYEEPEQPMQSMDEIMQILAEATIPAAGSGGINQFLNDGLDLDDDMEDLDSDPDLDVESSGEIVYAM
As to the kind of experiment: pull-down; GST pull-down on glutathione magnetic agarose beads; 50 mM Tris-HCl pH 7.5, 5% glycerol, 1 mM EDTA, 1 mM DTT, 1 mM PMSF, 0.01% Nonidet P-40, 150 mM KCl; 4 °C for 2 h; blots with anti-His and anti-GST. The following applies: both partners purified.

B1: TPS2 promoter probe (P3, G-box) (dsDNA)
DNA 1: CAGACCTGACGTCAGACGACGATTAGCCACGTGGCACACAGTGCACCCGACACGACGAA
DNA 2: TTCGTCGTGTCGGGTGCACTGTGTGCCACGTGGCTAATCGTCGTCTGACGTCAGGTCTG
On to B1, for which the binding result with GST-ABF1 was “binds”.

B2: GST-ABF1 (natural protein, rice (Oryza sativa L.), UniProt Q0JHF1 1-266, looked up)
chain: MMASRVMASSSPSHTASDLARFAAGRGGGGSAGLGSMNVEEILRGIYADMPTPALPLVGGDRPMSPLPAPDVAAAPRTAEEVWKEITGAGVAAAAGGVVPPAAAAAAAPAVVAGAGAGTGAEMTLEDFLAREGAVKEDEAVVTDPSAAKGQVVMGFLNGAEVTGGVTGGRSRKRHLMDPMDRAAMQRQKRMIKNRESAARSRERKQAYIAELESLVTQLEEENAKMFKEQEEQHQKRLKELKEMVVPVIIRKTSARDLRRTNSMEW
notes: ABF1 (bZIP12), bZIP transcription factor of rice; the CDS was fused into pGEX-4T-1; also called bZIP12; source: E. coli Transetta (DE3), purified (GST-Sefinose Kit); not shown: GST, N-terminal, kept
Consider B2, for which the binding result in the data set with His-SAPK10 was “binds”.

These data come from PMC10342119, “ABF1 Positively Regulates Rice Chilling Tolerance via Inducing Trehalose Biosynthesis” (International Journal of Molecular Sciences, 2023).
